“And” between values parts separate entries of the source, which are not always exact repeats. Identical values can stand only once.
Tests used:
[1] = biological target: PfPV1 with Strep-tag at the C-terminus (PfPV1-Strep) (Plasmodium falciparum 3D7); experiment: AUC
[2] = biological target: PfPV1 with Strep-tag at the C-terminus (PfPV1-Strep) (Plasmodium falciparum 3D7); experiment: native gel or EMSA
[3] = biological target: PfPV1 with Strep-tag at the C-terminus (PfPV1-Strep) (Plasmodium falciparum 3D7); experiment: […] (pH 6.8), 200 mM NaCl, 0.5 mL/min
[4] = biological target: PfPV1 with Strep-tag at the C-terminus (PfPV1-Strep) (Plasmodium falciparum 3D7); experiment: negative-stain electron microscopy with 2D classification

## PfPV1 with Strep-tag at the C-terminus (PfPV1-Strep) (natural protein)
[1]
  stoichiometry N: 4 and 3 and 2
  weight fraction w of the component assigned to the tetramer (A4, 222 kDa): 24%
  weight fraction w of the component assigned to the tetramer (B3, 215 kDa): 17.5%
  weight fraction w of the component assigned to the trimer (A3, 139 kDa): 6.8%
  weight fraction w of the component assigned to the trimer (B2, 141 kDa): 48.1%
[2]
  stoichiometry N: 3
[3]
  stoichiometry N: 4 and 3
[4]
  stoichiometry N: 4

Source: publication PMC7697860
